Results as given in paper doi:10.1101/2022.08.15.503920.
Where “and” joins values, the source holds several entries; their conditions need not be identical. Identical values can stand only once. Like-named read-outs stand apart in the source and are kept apart here. One block for each substance: values may come before it.

Tests used:
Experiment in all cases: SEC-SAXS
[1] = target: L-lactate dehydrogenase from hog muscle (Sus scrofa) (UniProt P00339)
[2] = target: L-lactate dehydrogenase from hog muscle (Sus scrofa) (UniProt P00339); remark: listed apart in the source
P00924 = conditions: other: SEC-SAXS
[3] = target: enolase from baker's yeast (baker's yeast) (UniProt P00924)
[4] = target: enolase from baker's yeast (baker's yeast) (UniProt P00924); remark: listed apart in the source

enolase from baker's yeast, sequence (P00924 whole entry): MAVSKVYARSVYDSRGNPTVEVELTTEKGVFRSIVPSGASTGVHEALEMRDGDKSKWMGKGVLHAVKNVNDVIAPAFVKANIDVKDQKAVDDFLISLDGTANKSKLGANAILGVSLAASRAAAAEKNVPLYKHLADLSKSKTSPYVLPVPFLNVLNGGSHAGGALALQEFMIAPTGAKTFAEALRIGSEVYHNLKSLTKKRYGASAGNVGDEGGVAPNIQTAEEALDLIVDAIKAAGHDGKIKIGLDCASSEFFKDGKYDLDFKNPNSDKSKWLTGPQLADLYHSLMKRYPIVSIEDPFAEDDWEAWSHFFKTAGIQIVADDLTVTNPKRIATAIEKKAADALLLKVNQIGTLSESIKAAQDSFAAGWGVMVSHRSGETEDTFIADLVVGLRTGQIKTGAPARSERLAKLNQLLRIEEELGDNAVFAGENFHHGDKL

stoichiometry N [1]: 4
stoichiometry N [2]: 4 and 2
Substance: L-lactate dehydrogenase from hog muscle (from UniProt P00339 1-332) (enzyme)

Substance: enolase from baker's yeast
share of monomer and dimer in the main peak body at 100 MPa (P00924): ∼50% monomer/dimer mixture

Substance: enolase from baker's yeast (from UniProt P00924 1-437) (enzyme)
stoichiometry N [3]: 2
stoichiometry N [4]: 2
